What was measured:
[1] = molecular target: FcγRIIIa F158 on Jurkat/NFAT-luc2p/FcγRIIIa F158 cells (UniProt P08637 17-254, limits assumed); test: cell-based or functional assay
[2] = molecular target: Pre-S1 domain of hepatitis B virus (L protein) on recombinant HBV D genotype virus (hepatitis B virus, D genotype); test: cell-based or functional assay
[3] = molecular target: T1, FcγRIIa R131 on Jurkat/NFAT-luc2p/FcγRIIa R131 cells (UniProt P12318 34-317, limits assumed); test: cell-based or functional assay
T1 sequence (looked up): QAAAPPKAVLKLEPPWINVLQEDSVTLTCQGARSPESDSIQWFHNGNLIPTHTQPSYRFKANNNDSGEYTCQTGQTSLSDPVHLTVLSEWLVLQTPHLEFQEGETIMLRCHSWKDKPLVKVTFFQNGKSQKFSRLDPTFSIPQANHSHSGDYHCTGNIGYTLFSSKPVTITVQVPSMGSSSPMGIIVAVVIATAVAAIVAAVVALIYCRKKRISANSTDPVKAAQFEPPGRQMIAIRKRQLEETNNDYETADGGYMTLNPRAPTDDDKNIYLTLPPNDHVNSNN

[4] = molecular target: T2, hFcγRIIIa (V158) (recombinant, C-terminal 6xHis tag) (human, UniProt P08637 17-208); test: Biacore SPR, ratio against A14 WT
T2 construct: also called hFcyR3a V158

[5] = molecular target: T3, hFcγRIIa (R131) (recombinant, C-terminal 6xHis tag) (human, UniProt P12318 34-217); test: Biacore SPR, ratio against A14 WT
T3 construct: also called hFcyR2a R131
T3 sequence: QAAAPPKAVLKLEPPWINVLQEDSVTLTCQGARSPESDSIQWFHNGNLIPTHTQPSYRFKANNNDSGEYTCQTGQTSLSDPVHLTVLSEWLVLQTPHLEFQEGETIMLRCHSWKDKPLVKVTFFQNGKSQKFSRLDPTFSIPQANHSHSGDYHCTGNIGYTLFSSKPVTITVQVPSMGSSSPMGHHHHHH

[6] = molecular target: T4, hFcγRIIb (recombinant, C-terminal 6xHis tag) (human, UniProt P31994 43-217); test: Biacore SPR, ratio against A14 WT
T4 construct: also called hFcyR2b
T4 sequence: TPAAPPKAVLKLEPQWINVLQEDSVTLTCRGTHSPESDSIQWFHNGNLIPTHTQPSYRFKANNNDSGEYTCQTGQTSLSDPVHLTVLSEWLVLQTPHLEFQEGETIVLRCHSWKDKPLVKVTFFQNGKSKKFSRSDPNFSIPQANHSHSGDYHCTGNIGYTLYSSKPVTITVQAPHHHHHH

[7] = molecular target: T5, hFcγRIIa (H131) (recombinant, C-terminal 6xHis tag) (human, UniProt P12318 34-217); test: Biacore SPR, ratio against A14 WT
T5 construct: also called hFcyR2a H131
T5 sequence: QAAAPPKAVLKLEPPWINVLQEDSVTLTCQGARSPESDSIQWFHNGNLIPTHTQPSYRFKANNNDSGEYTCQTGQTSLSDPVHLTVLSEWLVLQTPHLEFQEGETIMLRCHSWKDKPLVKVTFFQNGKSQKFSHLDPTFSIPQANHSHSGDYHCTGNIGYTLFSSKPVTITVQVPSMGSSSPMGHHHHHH

[8] = molecular target: T6, hFcγRIa (recombinant, C-terminal 6xHis tag) (human, UniProt P12314 16-292); test: Biacore SPR, ratio against A14 WT
T6 construct: also called hFcγR1a

[9] = molecular target: T7, hFcγRIIIa (F158) (recombinant, C-terminal 6xHis tag) (human, UniProt P08637 17-208); test: Biacore SPR, ratio against A14 WT
T7 construct: also called hFcyR3a F158

[10] = molecular target: T2, hFcγRIIIa (V158) (recombinant, …); test: Biacore SPR, antibody captured on Protein G CM5 chip, hFcγR as mobile phase, pH 7.0, 1:1 Langmuir fit
[11] = molecular target: T3, hFcγRIIa (R131) (recombinant, …); test: as above
[12] = molecular target: T4, hFcγRIIb (recombinant, C-terminal 6xHis …); test: as above
[13] = molecular target: T5, hFcγRIIa (H131) (recombinant, …); test: as above
[14] = molecular target: T6, hFcγRIa (recombinant, C-terminal 6xHis …); test: as above
[15] = molecular target: T7, hFcγRIIIa (F158) (recombinant, …); test: as above

T2 sequence (P08637 other isoform, or with tags, fused parts or gaps): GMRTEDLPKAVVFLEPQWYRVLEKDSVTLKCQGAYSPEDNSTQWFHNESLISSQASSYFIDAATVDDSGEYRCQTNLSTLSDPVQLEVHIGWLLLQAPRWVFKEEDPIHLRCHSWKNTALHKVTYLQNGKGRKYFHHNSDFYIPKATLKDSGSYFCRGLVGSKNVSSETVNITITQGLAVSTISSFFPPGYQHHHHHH
T7 sequence (P08637 other isoform, or with tags, fused parts or gaps): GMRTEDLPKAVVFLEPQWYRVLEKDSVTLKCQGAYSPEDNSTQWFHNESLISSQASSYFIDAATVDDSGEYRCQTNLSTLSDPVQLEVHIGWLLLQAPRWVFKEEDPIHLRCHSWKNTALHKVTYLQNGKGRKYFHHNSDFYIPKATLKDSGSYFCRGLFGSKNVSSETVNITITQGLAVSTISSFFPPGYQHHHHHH
T6 sequence (P12314 other isoform, or with tags, fused parts or gaps): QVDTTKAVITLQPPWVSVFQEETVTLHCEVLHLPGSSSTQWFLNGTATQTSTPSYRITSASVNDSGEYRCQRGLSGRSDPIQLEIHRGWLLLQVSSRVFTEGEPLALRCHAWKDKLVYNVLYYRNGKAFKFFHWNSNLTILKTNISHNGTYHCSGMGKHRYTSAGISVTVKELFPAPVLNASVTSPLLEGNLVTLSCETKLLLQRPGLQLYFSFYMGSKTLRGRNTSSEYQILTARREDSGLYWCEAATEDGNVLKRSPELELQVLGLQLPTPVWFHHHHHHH

B1: afuco-A14 GA LS (antibody, human IgG1, lambda)
heavy: QVQLQQSGPGLVKPSQTLSLTCAISGDSVSSNSAAWNWIRQSPSRGLEWLGRTYYRSKWYNDYAVSVKSRITINPDTSKNQFSLQLNSVTPEDTAVYYCARGTRWGMDVWGQGTLVTVSSASTKGPSVFPLAPSSKSTSGGTAALGCLVKDYFPEPVTVSWNSGALTSGVHTFPAVLQSSGLYSLSSVVTVPSSSLGTQTYICNVNHKPSNTKVDKKVEPKSCDKTHTCPPCPAPELLAGPSVFLFPPKPKDTLMISRTPEVTCVVVDVSHEDPEVKFNWYVDGVEVHNAKTKPREEQYNSTYRVVSVLTVLHQDWLNGKEYKCKVSNKALPAPIEKTISKAKGQPREPQVYTLPPSRDELTKNQVSLTCLVKGFYPSDIAVEWESNGQPENNYKTTPPVLDSDGSFFLYSKLTVDKSRWQQGNVFSCSVLHEALHSHYTQKSLSLSPGK
light: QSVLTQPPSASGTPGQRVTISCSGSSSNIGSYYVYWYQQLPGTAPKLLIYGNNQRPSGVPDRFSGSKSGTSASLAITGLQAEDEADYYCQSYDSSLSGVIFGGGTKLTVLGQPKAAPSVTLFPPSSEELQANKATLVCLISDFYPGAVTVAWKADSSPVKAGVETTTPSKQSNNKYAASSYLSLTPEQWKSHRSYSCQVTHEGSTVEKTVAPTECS
ADCC activity, fold enhancement compared to A14 [1]: 18.6 fold | IC50 of inhibition of HBV infection of HepG2-hNTCP cells (HBeAg secretion) [2]: ~11 ng/mL | ADCP activity, fold enhancement compared to A14 [3]: 4.7 fold | Fold (KD of A14 WT over KD of afuco-A14 GA LS) [4]: 7.89 fold | Fold (KD of A14 WT over KD of afuco-A14 GA LS) [5]: 3.83 fold | Fold (KD of A14 WT over KD of afuco-A14 GA LS) [6]: 0.76 fold | Fold (KD of A14 WT over KD of afuco-A14 GA LS) [7]: 4.63 fold | Fold (KD of A14 WT over KD of afuco-A14 GA LS) [8]: 0.41 fold | Fold (KD of A14 WT over KD of afuco-A14 GA LS) [9]: 11 fold | Kd [10]: 123 nM | Kd [11]: 204 nM | Kd [12]: 7.47 µM | Kd [13]: 169 nM | Kd [14]: 173 nM | Kd [15]: 588 nM

— EP4541815A1 (Huahui Health Ltd., dated 2023)
